biological target: T1, Bcl-XL (UniProt Q07817 1-209); assay: fluorescence polarisation competition; 15 nM Bak BH3 carboxyfluorescein, 100 nM Bcl-XL
T1 construct: also called anti-apoptotic member Bcl-XL
T1 sequence (Q07817 1-209): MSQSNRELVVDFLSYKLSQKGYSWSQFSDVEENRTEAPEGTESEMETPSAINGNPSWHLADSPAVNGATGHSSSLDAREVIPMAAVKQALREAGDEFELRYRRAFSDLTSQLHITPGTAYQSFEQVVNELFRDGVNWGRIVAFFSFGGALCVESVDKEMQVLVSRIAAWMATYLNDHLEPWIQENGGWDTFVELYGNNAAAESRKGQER

Question: VMTQEVGQLLQDMGDDVYQQYRSL (also called peptide b)) [Kiaa 1578 peptide] was tested. Which Ki did it give?
Answer: Its Ki is 32 µM.

Question: Which Ki does the source give for MATVIHNPLKALGDQFYKEAIEHC (also called peptide a)) [Cerd4 peptide] here?
Answer: Its Ki is 9 µM.

Question: Which Ki does the source give for VATRRLSGFLRTLADRLEGTKELL (also called peptide e)) [Mina53 peptide] here?
Answer: Its Ki is 20 µM.

Question: Which Ki does the source give for DMWDTRIAKLRVSADSFVRQQEA (also called peptide d)) [Loc 51569 peptide] here?
Answer: The Ki was 8 µM.

Question: Which Ki does the source give for RLKHSCLLALKRAADLLGQRSSST (also called peptide c)) [Genematch peptide] here?
Answer: Its Ki is 1 µM.
